Experimental findings from patent publication US20220017612A1 (TILOS THERAPEUTICS, published 2022) are described below.

The term EC50 (read off the curve) denotes the concentration needed to bring the measured effect to its halfway point. A lower EC50 (read off the curve) goes with an effect from little substance.

For assay [1], the target named is human-chicken LAP-TGFβ1 chimera #5 on HT1080 cells (human/chicken chimera). The experiment in a line: flow cytometry, transduced HT1080 cells. The protocol:
(§1) These constructs were subcloned into lentivirus and transduced into HT1080 cells. Successful gene integration was confirmed by expression of a green fluorescent protein (GFP) reporter gene. LAP-TGFβ1 expression was evaluated by flow cytometry using a rabbit monoclonal antibody (Rmab) raised against a peptide from the mature cytokine (residues 250-361) domain (Abeam cat #ab179695), 28G11_(hyb) and 2C9_(hyb). Briefly, 4×10⁵ each of (a) HT1080 cells, (b) HT1080 cells overexpressing human LAP-TGFβ1, (c) HT1080 cells overexpressing chicken LAP-TGFβ1, and (d) HT1080 cells overexpressing human/chicken chimeras #1-#7 were cultured in 96-well plates. The plates were centrifuged for 5 min at 1,500 rpm, liquid was removed, and cells were resuspended with 200 μL FACS buffer. The plates were centrifuged again, diluted primary antibody was added to each well, and the plates were incubated on ice for 20 minutes, followed by centrifugation. The cells were resuspended in 200 μL FACS buffer, centrifuged again, and resuspended in 50 μL diluted secondary antibody (APC-anti-Mouse IgG). The plates were incubated on ice for 20 minutes in the dark, washed twice with 200 μL FACS buffer, and cells from each well (in 200 μL FACS buffer) were read on the Attune NXT instrument. The antibodies were considered to be binding if >10% of cells were GFP+/APC+ and there was visible correlation between the GFP and allophycocyanin (APC) signals (Table 5).

The target in assay [2] is T1, human LAP-TGFβ1 overexpressed on cells (human, UniProt P01137 30-390).
T1 construct: HT1080 or P3U1 cells overexpressing wild-type human LAP-TGFβ1; also called HT1080-huB1; HT1080-hβ1
The experiment in a line: flow cytometry, transduced HT1080 cells. Here is the method:
as §1

Assay [3] deals with human-chicken LAP-TGFβ1 chimera #3 on HT1080 cells (human/chicken chimera, UniProt P01137 30-390). Description: flow cytometry, transduced HT1080 cells. Here is the method: as §1
A general note: In flow cytometry, cells or beads pass a laser one at a time.

Assay [4] has as its target human-chicken LAP-TGFβ1 chimera #6 on HT1080 cells (human/chicken chimera, UniProt P01137 30-390). The experiment in a line: flow cytometry, transduced HT1080 cells. The protocol: as §1
The target in assay [5] is T2, human-chicken LAP-TGFβ1 chimera #4 on HT1080 cells (human/chicken chimera, UniProt P01137 30-390).
T2 construct: also called HT1080-ch4
The experiment in a line: flow cytometry, transduced HT1080 cells. The protocol: as §1

In assay [6] the target is T3, human-chicken LAP-TGFβ1 chimera #2.3 on HT1080 cells (human/chicken chimera, UniProt P01137 30-390).
T3 construct: also called HT1080-ch2.3
Description: flow cytometry, transduced HT1080 cells. The protocol: as §1

For assay [7], the target named is human-chicken LAP-TGFβ1 chimera #7 on HT1080 cells (human/chicken chimera, UniProt P01137 30-390). The experiment in a line: flow cytometry, transduced HT1080 cells. Here is the method:
as §1

The target of assay [8] is T4, chicken LAP-TGFβ1 on HT1080 cells (chicken, UniProt P09531 19-391).
T4 construct: also called chB1
T4 sequence: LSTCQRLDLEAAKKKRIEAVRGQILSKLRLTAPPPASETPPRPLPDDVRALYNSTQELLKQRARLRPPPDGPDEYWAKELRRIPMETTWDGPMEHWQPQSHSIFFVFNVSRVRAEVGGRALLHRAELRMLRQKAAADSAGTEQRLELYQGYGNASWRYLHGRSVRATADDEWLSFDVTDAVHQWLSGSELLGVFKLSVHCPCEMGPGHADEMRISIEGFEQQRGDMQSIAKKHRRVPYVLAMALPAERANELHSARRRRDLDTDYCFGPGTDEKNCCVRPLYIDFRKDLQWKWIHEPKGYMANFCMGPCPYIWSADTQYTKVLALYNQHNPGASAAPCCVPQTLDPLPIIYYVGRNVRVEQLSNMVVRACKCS
The experiment in a line: flow cytometry, transduced HT1080 cells. Here is the method: as §1

Assay [9] deals with T5, human-chicken LAP-TGFβ1 chimera #2.2 on HT1080 cells (human/chicken chimera, UniProt P01137 30-390).
T5 construct: also called HT1080-ch2.2
The experiment in a line: flow cytometry, transduced HT1080 cells. Here is the method: as §1

The target of assay [10] is human-chicken LAP-TGFβ1 chimera #1.3 on HT1080 cells (human/chicken chimera, UniProt P01137 30-390). Description: flow cytometry, transduced HT1080 cells. Here is the method:
as §1

Assay [11] addresses human-chicken LAP-TGFβ1 chimera #1.2 on HT1080 cells (human/chicken chimera, UniProt P01137 30-390). Description: flow cytometry, transduced HT1080 cells. Here is the method:
as §1

Assay [12] has as its target T6, human-chicken LAP-TGFβ1 chimera #2.1 on HT1080 cells (human/chicken chimera, UniProt P01137 30-390). Description: flow cytometry, transduced HT1080 cells. Here is the method: as §1
Assay [13] deals with T7, LAP-TGFβ1 on U937 cells (Homo sapiens, UniProt P01137).
T7 construct: cell surface, endogenous; also called LAP+ U937 cells
The experiment in a line: flow cytometry dot plot against GARP, U937 cells, Alexa 647 antibody at 10 ug/ml. The protocol:
(§2) Anti-LAP antibodies were tested for their ability to bind to U937 cells, a myeloid cell line derived from a patient with histiocytic lymphoma. U937 cells were incubated with FACS buffer and human Fc block followed by incubation with varying concentrations of Alexa 647 conjugated 28G11_hyb, 22F9_mIgG2a, or 20E6_mIgG2a. In a separate experiment U937 cells were incubated with FACS buffer and human Fc block followed by incubation with 10 ug/ml of Alexa 647 conjugated 28G11_hyb, 22F9_mIgG2a, 20E6_mIgG2a or mIgG2a isotype control (FIGS. 10E and 10F). Representative dot plots are shown in FIG. 10G; in these plots, antibodies were at 10 ug/ml.

The target in assay [14] is T4, chicken LAP-TGFβ1 on HT1080 cells. The experiment in a line: flow cytometry, HT1080 cells. Here is the method: as §1
Assay [15] has as its target T5, human-chicken LAP-TGFβ1 chimera #2.2 on …. The experiment in a line: flow cytometry, HT1080 cells. The protocol: as §1
Assay [16] deals with T6, human-chicken LAP-TGFβ1 chimera #2.1 on …. The experiment in a line: flow cytometry, HT1080 cells. The protocol: as §1
Assay [17] addresses T7, LAP-TGFβ1 on U937 cells. The experiment in a line: flow cytometry, U937 cells, Alexa 647 antibody, % LAP+ cells. Here is the method:
as §2

T7 sequence (P01137 30-390 limits assumed): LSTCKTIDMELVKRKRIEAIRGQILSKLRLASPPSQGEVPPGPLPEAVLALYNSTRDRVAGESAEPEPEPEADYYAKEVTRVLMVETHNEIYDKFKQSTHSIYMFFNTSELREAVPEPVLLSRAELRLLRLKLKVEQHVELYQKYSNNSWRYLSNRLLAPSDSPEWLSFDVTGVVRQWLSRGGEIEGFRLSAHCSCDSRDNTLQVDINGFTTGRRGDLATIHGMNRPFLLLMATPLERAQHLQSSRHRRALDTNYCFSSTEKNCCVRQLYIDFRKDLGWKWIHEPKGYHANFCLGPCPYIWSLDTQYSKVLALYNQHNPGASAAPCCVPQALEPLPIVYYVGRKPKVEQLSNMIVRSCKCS
T5 sequence (P01137 other isoform, or with tags, fused parts or gaps mutant): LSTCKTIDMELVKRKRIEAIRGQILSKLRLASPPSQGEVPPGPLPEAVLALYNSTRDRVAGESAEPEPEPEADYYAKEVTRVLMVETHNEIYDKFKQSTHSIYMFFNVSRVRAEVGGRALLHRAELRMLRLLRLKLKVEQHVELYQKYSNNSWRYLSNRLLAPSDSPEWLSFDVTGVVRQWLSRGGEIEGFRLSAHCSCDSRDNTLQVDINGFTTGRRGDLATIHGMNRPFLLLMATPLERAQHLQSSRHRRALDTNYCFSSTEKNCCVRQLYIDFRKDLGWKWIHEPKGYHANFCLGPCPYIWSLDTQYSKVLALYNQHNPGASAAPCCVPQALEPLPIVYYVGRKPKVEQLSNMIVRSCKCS
T6 sequence (P01137 other isoform, or with tags, fused parts or gaps mutant): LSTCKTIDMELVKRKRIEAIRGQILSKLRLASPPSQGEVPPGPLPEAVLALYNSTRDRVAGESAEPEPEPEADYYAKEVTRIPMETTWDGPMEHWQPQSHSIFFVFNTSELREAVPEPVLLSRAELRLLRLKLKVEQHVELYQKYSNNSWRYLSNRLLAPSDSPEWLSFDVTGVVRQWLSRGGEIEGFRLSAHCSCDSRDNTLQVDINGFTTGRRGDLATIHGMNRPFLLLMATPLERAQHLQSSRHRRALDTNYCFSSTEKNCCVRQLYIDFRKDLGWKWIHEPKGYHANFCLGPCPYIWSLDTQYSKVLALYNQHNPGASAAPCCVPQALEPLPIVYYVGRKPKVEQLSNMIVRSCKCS
T3 sequence (P01137 other isoform, or with tags, fused parts or gaps mutant): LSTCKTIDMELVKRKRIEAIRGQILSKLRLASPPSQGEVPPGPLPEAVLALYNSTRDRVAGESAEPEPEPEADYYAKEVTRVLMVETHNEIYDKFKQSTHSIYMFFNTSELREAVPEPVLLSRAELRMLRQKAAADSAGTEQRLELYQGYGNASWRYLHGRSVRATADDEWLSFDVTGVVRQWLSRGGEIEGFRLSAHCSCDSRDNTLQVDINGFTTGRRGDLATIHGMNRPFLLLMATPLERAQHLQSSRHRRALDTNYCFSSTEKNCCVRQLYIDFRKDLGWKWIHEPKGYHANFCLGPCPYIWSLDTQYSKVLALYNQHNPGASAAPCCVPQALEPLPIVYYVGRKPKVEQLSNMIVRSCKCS
human-chicken LAP-TGFβ1 chimera #3 on HT1080 cells, sequence (P01137 other isoform, or with tags, fused parts or gaps mutant): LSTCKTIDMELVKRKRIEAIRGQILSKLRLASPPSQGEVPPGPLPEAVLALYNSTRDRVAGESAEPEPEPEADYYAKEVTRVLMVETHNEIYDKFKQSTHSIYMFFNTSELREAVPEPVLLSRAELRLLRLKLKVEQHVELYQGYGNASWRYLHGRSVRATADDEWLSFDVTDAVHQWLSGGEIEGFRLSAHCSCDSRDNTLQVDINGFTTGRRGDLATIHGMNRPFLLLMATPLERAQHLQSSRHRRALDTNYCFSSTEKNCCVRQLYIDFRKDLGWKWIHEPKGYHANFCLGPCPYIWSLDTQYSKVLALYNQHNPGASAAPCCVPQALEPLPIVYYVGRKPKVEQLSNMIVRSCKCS
human-chicken LAP-TGFβ1 chimera #1.2 on HT1080 cells, sequence (P01137 other isoform, or with tags, fused parts or gaps mutant): as the sequence (P01137 30-390 limits assumed) above, with A31T, S32A, S35P, Q36A, G37S, V39T, G42R, E46D, A47D, L49R counted along it
T1 sequence (P01137 30-390): as the sequence (P01137 30-390 limits assumed) above
T2 sequence (P01137 other isoform, or with tags, fused parts or gaps mutant): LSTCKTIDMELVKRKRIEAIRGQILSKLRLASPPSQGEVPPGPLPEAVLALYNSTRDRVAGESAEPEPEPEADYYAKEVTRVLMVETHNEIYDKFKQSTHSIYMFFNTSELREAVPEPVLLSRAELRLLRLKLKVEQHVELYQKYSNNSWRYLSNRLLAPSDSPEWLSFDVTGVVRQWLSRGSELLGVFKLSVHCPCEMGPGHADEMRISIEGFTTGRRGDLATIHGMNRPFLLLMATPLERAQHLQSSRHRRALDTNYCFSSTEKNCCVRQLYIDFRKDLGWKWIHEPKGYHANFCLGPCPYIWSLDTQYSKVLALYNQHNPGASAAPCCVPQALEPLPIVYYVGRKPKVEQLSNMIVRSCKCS
human-chicken LAP-TGFβ1 chimera #1.3 on HT1080 cells, sequence (P01137 other isoform, or with tags, fused parts or gaps mutant): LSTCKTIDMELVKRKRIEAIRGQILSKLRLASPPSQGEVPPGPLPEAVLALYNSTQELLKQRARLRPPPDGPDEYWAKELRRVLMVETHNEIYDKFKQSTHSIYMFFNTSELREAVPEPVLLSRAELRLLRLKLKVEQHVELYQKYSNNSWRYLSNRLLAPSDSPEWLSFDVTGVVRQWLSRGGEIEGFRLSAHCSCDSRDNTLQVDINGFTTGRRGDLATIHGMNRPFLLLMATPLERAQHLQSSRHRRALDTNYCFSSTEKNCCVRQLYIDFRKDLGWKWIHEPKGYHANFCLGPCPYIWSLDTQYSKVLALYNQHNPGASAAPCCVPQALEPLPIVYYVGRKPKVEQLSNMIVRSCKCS
human-chicken LAP-TGFβ1 chimera #6 on HT1080 cells, sequence (P01137 other isoform, or with tags, fused parts or gaps mutant): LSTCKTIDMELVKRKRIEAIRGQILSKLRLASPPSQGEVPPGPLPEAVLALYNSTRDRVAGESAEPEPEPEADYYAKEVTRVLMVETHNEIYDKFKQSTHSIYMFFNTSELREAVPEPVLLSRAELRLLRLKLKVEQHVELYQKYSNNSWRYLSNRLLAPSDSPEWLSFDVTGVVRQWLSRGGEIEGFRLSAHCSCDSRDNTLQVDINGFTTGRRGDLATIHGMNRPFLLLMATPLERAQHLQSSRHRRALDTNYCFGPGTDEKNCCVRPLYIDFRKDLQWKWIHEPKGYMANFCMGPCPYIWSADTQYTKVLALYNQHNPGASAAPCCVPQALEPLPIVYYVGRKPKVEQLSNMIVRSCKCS
human-chicken LAP-TGFβ1 chimera #5 on HT1080 cells (human/chicken chimera), sequence (chain, as listed by the source mutant limits assumed): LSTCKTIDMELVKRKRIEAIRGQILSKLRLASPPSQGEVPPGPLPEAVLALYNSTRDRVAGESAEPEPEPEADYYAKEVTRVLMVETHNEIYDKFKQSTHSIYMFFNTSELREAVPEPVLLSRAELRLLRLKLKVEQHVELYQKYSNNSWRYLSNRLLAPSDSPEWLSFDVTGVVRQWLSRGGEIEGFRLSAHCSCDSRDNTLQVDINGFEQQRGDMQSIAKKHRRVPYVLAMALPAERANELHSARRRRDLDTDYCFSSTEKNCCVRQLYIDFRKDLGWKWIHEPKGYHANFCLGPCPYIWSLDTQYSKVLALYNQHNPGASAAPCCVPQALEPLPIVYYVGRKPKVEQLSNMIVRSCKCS

B1: 28G11_(hyb) (antibody, mouse IgG2b, kappa, V domains shown)
VH: EVKLVESGGGLVQPGGSLSLSCAASGFTFTDYYMSWVRQPPGKALEWLGFIRNKPNGYTTEYSASVKGRFTISRDNSQSILYLQMNVLRAEDSATYYCARYTGGGYFDYWGQGTTLTVSS
VL: DIQMTQTTSSLSASLGDRLTISCRASQDISNYLNWYQQKPDGTVKLLIYYTSRLHSGVPSRFSGSGSGTDYSLTISNLEQADIATYFCQQGDTLPWTFGGGTKLEIKR
notes: parental murine antibody; also called murine hybridoma 28G11; biotin-28G11
Turning to B1, the “% GFP+/APC+ cells” value in assay [1] was 41.7%; in [2], 98.3%; in [3] it was 32.2%; in assay [4] it was 84.9%; in assay [5], 76.2%; in assay [6], 94.7%. Besides, the “% GFP+/APC+ cells” value in [7] turned out to be 44.4%; in [8], 0.3%; in [9] it was 0.5%; in assay [10], 83%; in assay [11], 84.1%; in assay [12], 3.5%. For the same molecule, the “% of cells in Q1 (antibody axis positive, GARP negative)” value with LAP-TGFβ1 on U937 cells [13] came to 6.56%. The “% of cells in Q2 (antibody axis positive, GARP positive)” value with LAP-TGFβ1 on U937 cells [13] turned out to be 0.16%. The binding result in assay [14], in [15] and in assay [16] was “no binding” each time. Besides, the “EC50 (read off the curve)” value in the assay with LAP-TGFβ1 on U937 cells [17] is approximately 30 µg/mL.
